The supplement of paper PMC10567573
± gives the standard deviation.

Test: protein stability index of a GFP-peptide fusion (GPS, HEK-293T) (PSI 1-6); higher = more stable
[1] = treatment: DMSO, c terminus: a fixed tail appended
[2] = treatment: MLN4924 1 uM, 8 h, c terminus: a fixed tail appended
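Note: 24-mer peptide tiles fused after GFP, lentivirally expressed, FACS-sorted into six equal bins by GFP/DsRed ratio, decoded by Illumina sequencing, PSI is the read-weighted mean bin number.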

| Sequence | protein stability index [1] | protein stability index [2] | protein stability index (treatment: DMSO, c terminus: native) | protein stability index (treatment: MLN4924 1 uM, 8 h, c terminus: native) |
| --- | --- | --- | --- | --- |
| NSQESRSDLEDMEEEEGTRSPTLE [SMG5] | 5.56 ± 0.16 | 5.44 ± 0.23 |  |  |
| LIESEAPPKASEQETAKEEDGSVE [C18orf25] | 5.59 ± 0.31 | 5.77 ± 0.26 |  |  |
| AAANKLFHYIPGTDILDLENQREN [PLEKHN1] | 4.13 ± 0.3 | 3.92 ± 0.43 |  |  |
| RDPQAVKERALSAPWLSLFPPEGN [ZNF263] | 3.06 ± 0.27 | 3.14 ± 0.33 |  |  |
| SMLLQRFSVAPHETQTQRGGEFQC [RNF180] | 3.05 ± 0.097 | 3.31 ± 0.26 |  |  |
| LADYLVPILAPRIFGSNKWTTEQQ [ARL6IP1] | 2.34 ± 0.49 | 2.16 ± 0.16 |  |  |
| ALRQSVEADINGLRRVLDELTLSK [KRT13] | 3.08 ± 0.2 | 3.09 ± 0.26 |  |  |
| MQAAEVFSQKHFPEVVQHEEFILL [KLHL12] | 2.17 ± 0.48 | 2.44 ± 0.73 |  |  |
| FIEALIQQYQEQLDKSTKLVETAI [TRIM63] | 2.66 ± 0.52 | 2.14 ± 0.39 |  |  |
| AELFSYVLQDRAAKGSLGTQIGFA [FEM1A] | 2.16 ± 0.21 | 2.11 ± 0.23 |  |  |
| EPAGSLRELGVWRSLLRLRATRAG [C2CD2L] | 2.88 ± 0.29 | 3.06 ± 0.46 |  |  |
| SATLVGFTVGSVLGQILVSVAGWS [SLC19A2] | 3.13 ± 0.21 | 3.23 ± 0.89 |  |  |
| EGNHPSARKLTAQRRASTVSSVTQ [NET1] | 4.39 ± 0.25 | 4.69 ± 0.18 |  |  |
| HGCEYSCVNMDRSFACQCPEGHVL [MATN2] | 3.57 ± 0.29 | 3.61 ± 0.26 |  |  |
| LFRCIQNMPETLPNNSCYSAGIAK [TNFSF13B] | 2.63 ± 0.3 | 2.68 ± 0.16 |  |  |
| TASGDCYTFGSNQHGQLGTNTRRG [NEK8] | 4.56 ± 0.14 | 4.67 ± 0.15 |  |  |
| PFSFGTLSSWELEAWYEDLQEVLS [DDIT3] | 2.37 ± 0.54 | 2.78 ± 0.21 |  |  |
| CTEGPIDLVFVIDGSKSLGEENFE [MATN2] | 2.72 ± 0.29 | 2.52 ± 0.59 |  |  |
| PPNTRVLRVLPNLPCVVQEGAIVM [PYCR3] | 2.22 ± 0.22 | 2.39 ± 0.25 |  |  |
| SSECHTSGFVGSGGWFCEGSFNGS [KRT36] | 3.23 ± 0.17 | 3.06 ± 0.37 |  |  |
| SLRLCDMRAAALCDKHSKLFEEPE [PPP2R2C] | 4.19 ± 0.26 | 4.08 ± 0.26 |  |  |
| PRGRAHLLPNPYQQDFLGLPEELR [C22orf15] | 3.92 ± 0.24 | 4.31 ± 0.11 |  |  |
| GIGDMAFEGDMGAAGGDGELGSPL [PSD2] | 5.37 ± 0.25 | 5.46 ± 0.16 |  |  |

| Sequence | protein stability index [1] | protein stability index [2] | protein stability index (treatment: DMSO, c terminus: native) | protein stability index (treatment: MLN4924 1 uM, 8 h, c terminus: native) |
| --- | --- | --- | --- | --- |
| AANLPALVLKIMSGTFAPISDRYS [NEK8] | 3.08 ± 0.27 | 2.9 ± 0.56 |  |  |
| IIELLGSIPRHFALSGKYSREFFN [SRPK2] | 2.75 ± 0.54 | 2.56 ± 0.39 |  |  |
| MRGPEPGPQPTMEGDVLDTLEALG [FAM98B] | 5.19 ± 0.34 | 5.087 ± 0.039 |  |  |
| AEYYRLHLEGYHGTAGDSMSYHSG [TNXB] | 3.09 ± 0.83 | 2.96 ± 0.43 |  |  |
| ERTSPGAIHYCASTSEESWTDSEV [SPDEF] | 5.25 ± 0.058 | 4.97 ± 0.18 |  |  |
| ETRAEDPPWFEGLESRFQSKSGYL [DFFB] | 3.56 ± 0.063 | 3.63 ± 0.069 |  |  |
| RLEQEIATYRSLLEGQDAKMIGFP [KRT13] | 3.06 ± 0.1 | 3.36 ± 0.34 |  |  |
| FDDYSATLPLTLIVILENIAVAWI [SLC6A17] | 2.69 ± 0.44 | 3.28 ± 0.71 |  |  |
| LPELLLGALPVGSNLTSNLASLVS [RETREG3] | 2.17 ± 0.2 | 2.17 ± 0.28 |  |  |
| SNTRDRYGRSWESYSSCGDFHYCD [RBMY1A1] | 2.73 ± 0.27 | 2.91 ± 0.54 |  |  |
| VLRTWRTNLPKGACALLLTSVDHD [DLC1] | 2.26 ± 0.66 | 2.44 ± 0.39 |  |  |
| DAAVVRPGFLSTAEEETLSRELEP [ALKBH7] | 5.53 ± 0.063 | 5.42 ± 0.17 |  |  |
| EPHGKMFNEQTWEVSQQDPSHGEV [ZSCAN9] | 5.06 ± 0.16 | 5.04 ± 0.18 |  |  |
| SIVSGGYGGSGDGLIPTGSGRHPS [ARFIP2] | 3.96 ± 0.19 | 4.34 ± 0.42 |  |  |
| YKSFSKEQQTMDNLEKQLICPICL [TRIM55] | 2.72 ± 0.38 | 2.77 ± 0.8 |  |  |
| GYLIKILTNSNLPEEELDFFEILR [CNOT7] | 2.15 ± 0.25 | 2.23 ± 0.3 |  |  |
| INHLLKSPFSVHPKTGRISVPIDL [PRIM1] | 2.06 ± 0.21 | 2.48 ± 0.17 |  |  |
| LQALDPQQCVDKESSLGSESEEEE [SLC22A15] | 5.56 ± 0.28 | 5.59 ± 0.1 |  |  |
| ATEPATCFPSTQKPTEPSVPVQPL [FBF1] | 4.9 ± 0.099 | 4.96 ± 0.1 |  |  |
| EAARLEYDAYRTDLEELSLGPRDA [ARFIP2] | 4.78 ± 0.15 | 4.86 ± 0.15 |  |  |
| ACDIRVAASSAKMGLVETKLAIIP [AUH] | 2.95 ± 0.22 | 3.03 ± 0.32 |  |  |
| IHLREDLVQDQDLEAIRKQDLVEL [ZER1] | 4.5 ± 0.096 | 4.56 ± 0.28 |  |  |
| VAIFGPPNTLYEGGYFKAHIKFPI [UBE2R2] | 3.24 ± 1 | 2.95 ± 0.97 |  |  |

| Sequence | protein stability index [1] | protein stability index [2] | protein stability index (treatment: DMSO, c terminus: native) | protein stability index (treatment: MLN4924 1 uM, 8 h, c terminus: native) |
| --- | --- | --- | --- | --- |
| ENQRENLEQPFLSVFKKGRRRVPV [PLEKHN1] | 3.31 ± 0.4 | 3.46 ± 0.18 |  |  |
| IIVRTTNKKYYKKFSIPDLDRHQL [DPCD] | 2.29 ± 0.55 | 2.14 ± 0.29 |  |  |
| IFDEDHDEMVIVKDIDMFSMCEHH [GCH1] | 3.16 ± 0.24 | 3.31 ± 0.13 |  |  |
| DHEDNDKMNDSEGMDPERLKAFNM [NOL4L] | 5.46 ± 0.12 | 5.34 ± 0.34 |  |  |
| LLSGAFKKRRLPPVHIHPAFARQA [FOXJ1] | 2.21 ± 0.1 | 2.54 ± 0.36 |  |  |
| YFYLGGARGAGPPEPLRICPLHIS [TRIM35] | 2.44 ± 0.28 | 2.04 ± 0.32 |  |  |
| VVHQRVHSGEKPYKCSDCGKTFKQ [ZNF232] | 3.29 ± 0.25 | 3.43 ± 0.23 |  |  |
| PRKRHREDSDVEMVEDDSRKEMTA [MLH1] | 5.43 ± 0.25 | 5.49 ± 0.18 |  |  |
| ELRRNHCFQDFKEEKPQENKTWRE [ELOA2] | 3.31 ± 0.31 | 3.47 ± 0.41 |  |  |
| LIGAAAFLGGVVRMTISLTVILIE [CLCN6] | 3.27 ± 0.53 | 2.75 ± 1.3 |  |  |
| GHMLQHHGNSGHPLVLSYIDLSAW [HDAC6] | 2.24 ± 0.33 | 1.85 ± 0.19 |  |  |
| PSLEELGFDTDGLSSAVWPGGETE [CRY1] | 5.33 ± 0.28 | 5.29 ± 0.16 |  |  |
| SLLQSAWMEILILGVVYRSLSFED [ESRRG] | 3.09 ± 0.26 | 3.07 ± 0.22 |  |  |
| YGPRWQEVIPYTPAMQRYVKRLHE [HMOX1] | 3.09 ± 0.4 | 3.4 ± 0.24 |  |  |
| SKAHLEKVRSYVKRALAEGAQIWC [ALDH8A1] | 3.23 ± 0.73 | 3.19 ± 0.56 |  |  |
| CRGHTLERSVFSERTEESSAVQYF [CARM1] | 2.81 ± 0.34 | 2.92 ± 0.5 |  |  |
| SNFHINVEESVDGQVVSSHKREI [KRT15] |  |  | 2.91 ± 1 | 3.83 ± 1 |
| DPQILQMLKEEHQIILENQKNFGL [RAD54B] | 3.25 ± 0.3 | 3.812 ± 0.008 |  |  |
| PAMAASKALGSDLDSSLASLVGNL [SNAP91] | 4.06 ± 0.34 | 3.95 ± 0.34 |  |  |
| SLAQGPDAATTDELSSLGSDSEAN [TBC1D10A] | 5.56 ± 0.19 | 5.5 ± 0.18 |  |  |
| QYVTFLRSFSDKQKISLLHSCTCV [ALG2] | 3.1 ± 0.51 | 2.69 ± 0.48 |  |  |
| SRLQEDPEGTENPLGVDESLFSYG [SLA] | 4.91 ± 0.058 | 4.66 ± 0.69 |  |  |
| ESDSCQKCEQPFFWNIKQMWDTKT [WDFY1] | 3.25 ± 0.089 | 3.19 ± 0.24 |  |  |

| Sequence | protein stability index [1] | protein stability index [2] | protein stability index (treatment: DMSO, c terminus: native) | protein stability index (treatment: MLN4924 1 uM, 8 h, c terminus: native) |
| --- | --- | --- | --- | --- |
| EGSVACLWWDPIQRLLFSGASDNS [WDFY1] | 2.36 ± 0.32 | 2.43 ± 0.1 |  |  |
| PEAEENKQIIRKHAQTFVALCATD [CCND1] | 3.4 ± 0.73 | 3.81 ± 0.71 |  |  |
| AWFGFAGTPGYLSPEVLRKDPYGK [CAMK2A] | 2.46 ± 0.2 | 2.88 ± 0.34 |  |  |
| LNVGNERYVFEAVIRWIAHDTEIR [GAN] | 2.53 ± 0.57 | 2.61 ± 0.56 |  |  |
| YYYMGFYIHSCPKMKYKGQYRPSD [ATE1] | 2.25 ± 0.82 | 2.45 ± 0.2 |  |  |
| QFSVVSVVAYLALAALSATISFRI [RTN1] | 2.99 ± 0.57 | 3.2 ± 0.55 |  |  |
| VGKTRLICARACNATLTQYQLLAT [RHOBTB2] | 2.28 ± 0.34 | 2.17 ± 0.31 |  |  |
| PRTSEAQARKALFEKWEQETAAGK [SMTNL2] | 5.1 ± 0.31 | 5.02 ± 0.24 |  |  |
| PEKASELSQVELQAAPGALPVSSP [TRIM55] | 5.21 ± 0.38 | 5.49 ± 0.24 |  |  |
| MNGDSRAAVVTSPPPTTAPHKERY [ADD1] | 4.89 ± 0.26 | 5.07 ± 0.22 |  |  |
| KHPRQTLEVINLLRKHRELCDVVL [KLHL20] | 2.34 ± 0.43 | 2.17 ± 0.25 |  |  |
| DSPSKEEVFRFVQSCARAVVPSYI [CPOX] | 2.48 ± 0.55 | 2.5 ± 0.32 |  |  |
| NNILISAVLPTAFRVAKKRAPKVL [GDAP1] | 2.34 ± 0.24 | 2.48 ± 0.34 |  |  |
| RDNAELEKLIQERSQQQEPLLCPS [KRT34] | 4.94 ± 0.13 | 4.87 ± 0.27 |  |  |
| SDGTDEPESKEPVEKEEEPDPEPP [SMG5] | 5.67 ± 0.23 | 5.62 ± 0.18 |  |  |
| LDKLLQGGIETGSITEMFGEFRTG [RAD51] | 3.07 ± 0.26 | 3.06 ± 0.28 |  |  |
| LQAIKAAIMLLPDENREVLQTLLY [DLC1] | 2.23 ± 0.42 | 2.22 ± 0.16 |  |  |
| SSDPFYTPEPDTCHELLGHVPLLA [TPH1] | 3.17 ± 0.35 | 3.31 ± 0.15 |  |  |
| MLPGVGVFGTSLTARVIIPLLKDE [GFOD1] | 2.17 ± 0.19 | 2.02 ± 0.16 |  |  |
| WRRSGKYVYKPVMNQTCCPQYTIR [ATE1] | 2.03 ± 0.22 | 2.32 ± 0.32 |  |  |
